Read-outs that look alike come from different tables or passages of the source.
T1: His-tagged CD73 extracellular domain protein (hCD73 ECD-His) (human, UniProt P21589 27-547)
T1 construct: Expressed in CHO cells from pTT5-hCD73 ECD-His6, purified on nickel column; also called hCD73 ECD-His6; human CD73 ECD
T1 sequence: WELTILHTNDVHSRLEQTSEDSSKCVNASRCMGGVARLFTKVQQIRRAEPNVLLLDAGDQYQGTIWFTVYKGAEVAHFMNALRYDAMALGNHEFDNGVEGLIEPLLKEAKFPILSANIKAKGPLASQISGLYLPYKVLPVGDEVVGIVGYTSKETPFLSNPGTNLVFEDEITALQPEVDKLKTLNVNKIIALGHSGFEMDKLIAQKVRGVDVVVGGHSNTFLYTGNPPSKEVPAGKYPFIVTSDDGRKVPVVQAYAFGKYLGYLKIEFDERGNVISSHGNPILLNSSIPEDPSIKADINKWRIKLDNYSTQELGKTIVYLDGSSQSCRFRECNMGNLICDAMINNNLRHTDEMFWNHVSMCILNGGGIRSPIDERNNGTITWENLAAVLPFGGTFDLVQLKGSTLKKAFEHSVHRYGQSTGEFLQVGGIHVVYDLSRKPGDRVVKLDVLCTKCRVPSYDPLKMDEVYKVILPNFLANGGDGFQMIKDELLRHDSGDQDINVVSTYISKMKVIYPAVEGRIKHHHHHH

T2: human CD73 (full length, on transfected CHOK1 cells) (human, UniProt P21589 27-549)
T2 sequence (looked up): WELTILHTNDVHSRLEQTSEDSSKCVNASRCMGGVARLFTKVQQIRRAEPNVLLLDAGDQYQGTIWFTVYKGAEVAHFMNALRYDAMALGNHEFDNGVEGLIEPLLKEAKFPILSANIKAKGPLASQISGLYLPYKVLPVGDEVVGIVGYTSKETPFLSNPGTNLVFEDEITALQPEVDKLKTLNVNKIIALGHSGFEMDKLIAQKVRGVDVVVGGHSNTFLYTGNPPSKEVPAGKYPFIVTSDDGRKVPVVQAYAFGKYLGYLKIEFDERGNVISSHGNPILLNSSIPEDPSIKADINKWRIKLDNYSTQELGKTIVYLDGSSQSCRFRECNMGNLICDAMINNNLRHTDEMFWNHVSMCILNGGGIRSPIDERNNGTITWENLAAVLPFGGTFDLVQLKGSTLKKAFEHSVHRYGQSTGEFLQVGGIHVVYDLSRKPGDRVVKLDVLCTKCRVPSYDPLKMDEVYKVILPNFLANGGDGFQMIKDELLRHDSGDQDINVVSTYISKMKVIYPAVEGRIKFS

T3: murine CD73 (on transfected CHOK1 cells) (mouse, UniProt Q61503 29-551)
T3 construct: whole, on cells; also called CHOK1-mCD73; mCD73
T3 sequence (looked up): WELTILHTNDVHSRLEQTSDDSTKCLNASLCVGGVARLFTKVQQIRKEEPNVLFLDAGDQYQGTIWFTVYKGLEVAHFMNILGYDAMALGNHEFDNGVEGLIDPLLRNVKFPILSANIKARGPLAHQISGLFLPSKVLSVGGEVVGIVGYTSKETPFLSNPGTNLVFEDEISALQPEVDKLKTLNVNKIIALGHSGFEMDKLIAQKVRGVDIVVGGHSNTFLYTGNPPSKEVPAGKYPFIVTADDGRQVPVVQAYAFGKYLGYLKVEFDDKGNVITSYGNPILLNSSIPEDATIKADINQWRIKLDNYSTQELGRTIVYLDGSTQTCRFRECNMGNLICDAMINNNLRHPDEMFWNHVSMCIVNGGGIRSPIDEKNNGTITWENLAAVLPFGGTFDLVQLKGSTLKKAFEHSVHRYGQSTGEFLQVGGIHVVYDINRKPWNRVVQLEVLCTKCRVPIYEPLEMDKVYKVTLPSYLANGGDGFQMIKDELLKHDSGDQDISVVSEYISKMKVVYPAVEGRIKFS

T4: cynomolgus monkey CD73 (on transfected CHOK1 cells) (cynomolgus monkey, UniProt A0A2K5V5U7 27-549)
T4 construct: whole, on cells; also called CHOK1-cCD73; CHOK1-CCD73
T4 sequence: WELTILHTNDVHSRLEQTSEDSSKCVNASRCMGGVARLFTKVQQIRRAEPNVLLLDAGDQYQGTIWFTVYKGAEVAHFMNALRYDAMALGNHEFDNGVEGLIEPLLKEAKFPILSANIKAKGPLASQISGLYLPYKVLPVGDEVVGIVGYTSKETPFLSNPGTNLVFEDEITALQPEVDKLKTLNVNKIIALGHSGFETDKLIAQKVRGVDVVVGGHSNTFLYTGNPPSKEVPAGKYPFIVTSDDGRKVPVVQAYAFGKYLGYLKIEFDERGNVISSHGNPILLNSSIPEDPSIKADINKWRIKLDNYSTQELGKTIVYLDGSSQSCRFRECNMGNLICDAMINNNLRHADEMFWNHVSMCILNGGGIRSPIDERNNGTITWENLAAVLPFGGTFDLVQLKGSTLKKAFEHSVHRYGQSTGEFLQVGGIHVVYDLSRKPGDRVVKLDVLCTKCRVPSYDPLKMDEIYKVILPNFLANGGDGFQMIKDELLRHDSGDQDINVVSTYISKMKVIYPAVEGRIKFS


What was measured:
[1] = target: T1, His-tagged CD73 extracellular domain …; assay: Octet BLI, antibody on AHC sensor, antigen 50-200 nM, 1:1 fit
Description: Octet Red 96 was selected as the test instrument, and AHC biosensor was selected as the test sensor in this experiment. Anti-human IgG Fc antibody has been immobilized on the AHC sensor, which can be used to directly capture the 15 antibodies in this experiment. Then the sensor was immersed in the analysis sample (antigen). There were five steps in this experiment: 1, Baseline (120 s) 2, Loading (capture antibody) (300 s) 3, Baseline (120 s) 4, Association (binding antigen) (180 s) 5, Dissociation (antigen dissociation) (1200 s). After the test was completed, the regeneration buffer (Glycine PH1.5) and the neutralization buffer (1*PBS buffer) were alternately immersed for 5 seconds, and the sensor was regenerated by a total of five cycles. The maximum number of sensor regeneration times is 10. The running buffer in this experiment is the sample diluent (1*PBS buffer containing 0.02% Tween20 and 0.1% BSA), that is, the buffer used in the Baseline step, the Dissociation step, and the blank analyte sample. Four sensors are used at one running in this experiment.
Sample treatment: all the antibodies were diluted to the working concentration of 10 ug/ml with sample diluent (1*PBS buffer containing 0.02% Tween20 and 0.1% BSA), and the analyte samples (antigens) were diluted to three working concentrations: 200 nM, 100 nM and 50 nM.
For data analysis, Octet Data Analysis (version 7.0) was used to calculate the response signal value (the signal of the coupled analyte sample minus the signal of the blank analyte sample), and a 1:1 binding model was used to fit the data.

[2] = target: T2, human CD73 (full length, on transfected …); assay: cell-based or functional assay
[3] = target: T2, human CD73 (full length, on transfected …); assay: FACS on CHOK1-hCD73 cells
[4] = target: T3, murine CD73 (on transfected CHOK1 cells); assay: FACS on CHOK1-mCD73 cells
[5] = target: T4, cynomolgus monkey CD73 (on transfected …); assay: FACS on CHOK1-cCD73 cells
[6] = target: T2, human CD73 (full length, on transfected …); assay: cell-based or functional assay; remark: listed apart in the source
[7] = target: T2, human CD73 (full length, on transfected …); assay: FACS on CHOK1-hCD73 cells
Method: The titration binding curve was produced by the following method:
The CHOK1 stable cell line transfected with human CD73 was expanded to a 75-90% confluence in a T-75 cell culture flask. The medium was aspirated, washed 1-2 times with PBS, and then treated with trypsin (Tryple express: Life technology) and cells were collected. The cells were washed with PBS buffer for 1-2 times. After counted, the cells were diluted with PBS to 1-2×10⁶ cells per ml, added with 1% fetal bovine serum (FBS) blocking solution, incubated on ice for 20-30 minutes, and then washed twice with HBSS by centrifugation. The collected cells were suspended with FACS buffer (PBS+2% FBS) to 2×10⁶ cells/ml, added to a 96-well FACS reaction plate at 100 microliters per well, and centrifuged at 300 g for 5 minutes to discard the supernatant. Anti-CD73 antibody was prepared with blocking solution to an initial concentration of 10 ug/ml and serially diluted at 8 points. 100 microliter per well of that antibody sample to be tested were added and incubated at 4° C. for 1-2 hours. […] The plate was washed 2-3 times with FACS buffer by centrifugation, added with 100 μl fixative solution (4% Paraformaldehyde) per well to suspend the cells. 5-10 minutes later, it was washed 1-2 times with FACS buffer by centrifugation. The cells were suspended with 100 microliters of FACS buffer, FACS (FACSCalibur, BD) was used for detection and the results were analyzed, as shown in FIG. 1 and Table 4.

[8] = target: T4, cynomolgus monkey CD73 (on transfected …); assay: FACS on CHOK1-cCD73 cells; remark: listed apart in the source
[9] = target: T3, murine CD73 (on transfected CHOK1 cells); assay: FACS on CHOK1-mCD73 cells; remark: listed apart in the source

| Binder | Kd [1] | koff [1] | kon [1] | Inhibition assay of enzyme activity, IC50 [2] | Inhibition assay of enzyme activity, MAX % inhibition [2] | EC50 [3] | MAX MFI fold [3] | binding result [4] | EC50 [5] | MAX MFI fold [5] | Enzyme activity blocking assay, IC50 [6] | Enzyme activity blocking assay, MAX % inhibition [6] | EC50 [7] | MAX MFI [7] | EC50 [8] | MAX MFI [8] | binding result [9] |
| --- | --- | --- | --- | --- | --- | --- | --- | --- | --- | --- | --- | --- | --- | --- | --- | --- | --- |
| mab032xhIgG1TM (clone 56F12H8), mouse-human chimeric anti-CD73 antibody (antibody, V domains shown, also called mAb032 chimeric antibody) VH: EVQLVESGGDLVKPGGSLKLSCAASGFTFSTHGMSWVRQTPDKRLEWVAIISSDRSDIDYTDNVKGRFTISRDNGKNTLYLQMSSLKSEDTAIYHCARHRGYDGFYYAMDYWGQGTSVTVSS VL: DILMTQSPSSLTVTAGEKVTMSCRSSQSLLNSGNQKNYLTWYQQRPGRPPKLLIYWASTRISGVPDRFAGSGSGTDFTLTISIVQAEDLAVYYCQNDYSYPLTFGSGTKLELR | 279 pM | 1.95e-05 s⁻¹ | 70000 M⁻¹ s⁻¹ | 300 pM | 65.1% | 3200 pM | 130 fold | no binding | 2600 pM | 167 fold | – | – | – | – | – | – | – |
| mAb032 (clone 56F12H8), murine anti-CD73 antibody (antibody, V domains shown, Purified from hybridoma supernatant) VH: EVQLVESGGDLVKPGGSLKLSCAASGFTFSTHGMSWVRQTPDKRLEWVAIISSDRSDIDYTDNVKGRFTISRDNGKNTLYLQMSSLKSEDTAIYHCARHRGYDGFYYAMDYWGQGTSVTVSS VL: DILMTQSPSSLTVTAGEKVTMSCRSSQSLLNSGNQKNYLTWYQQRPGRPPKLLIYWASTRISGVPDRFAGSGSGTDFTLTISIVQAEDLAVYYCQNDYSYPLTFGSGTKLELR | – | – | – | – | – | – | – | – | – | – | 1200 pM | 66.9% | 2600 pM | 7660 MFI | 700 pM | 6050 MFI | no binding (tested: 10 ug/ml initial concentration) |
| mab020xhIgG1TM (clone 24D6B4), mouse-human chimeric anti-CD73 antibody (antibody, V domains shown, also called mAb020 chimeric antibody) VH: EVQLQQSGPELVKPGASVKIPCKASGYTFTDYNMDWVKQRHGKSLEWIGDINPNNGGTVYNQKFKGKATLTVDKSSNTAYMELRSLTSEDTAVYYCARISGTGYWYFDVWGTGTTVTVSS VL: DIQMTQSPASLSVSVGETVTITCRASENIYSNLAWYQQKQGKSPQLLVYGATNLADGVPSRFSGSDSGTQYSLKINSLQSEDFGSYYCQHFWGTPWTFGGGTKLEIK | 75.1 pM | 1.91e-05 s⁻¹ | 255000 M⁻¹ s⁻¹ | 600 pM | 57.7% | 1600 pM | 126 fold | no binding | 700 pM | 124 fold | – | – | – | – | – | – | – |

The remaining binders from weak to strong by Kd [1], led by results:

| Kd [1] | koff [1] | kon [1] | Inhibition assay of enzyme activity, IC50 [2] | Inhibition assay of enzyme activity, MAX % inhibition [2] | EC50 [3] | MAX MFI fold [3] | binding result [4] | EC50 [5] | MAX MFI fold [5] | Enzyme activity blocking assay, IC50 [6] | Enzyme activity blocking assay, MAX % inhibition [6] | EC50 [7] | MAX MFI [7] | EC50 [8] | MAX MFI [8] | Binder | binding result [9] |
| --- | --- | --- | --- | --- | --- | --- | --- | --- | --- | --- | --- | --- | --- | --- | --- | --- | --- |
| 57.7 pM | 2.36e-05 s⁻¹ | 409000 M⁻¹ s⁻¹ | 200 pM | 61.5% | 5700 pM | 154 fold | no binding | > 10000 pM | > 150 fold | – | – | – | – | – | – | mab034xhIgG1TM (clone 60G1C8), mouse-human chimeric anti-CD73 antibody (antibody, V domains shown, also called mAb034 chimeric antibody) VH: DVQLQESGPGLVKPSQSLSLTCSVTGYSITSRYYWNWIRQFPGNKLEWMGYMTYDGTNNYNPSLTNRISITRDTSKNQFFLKLNSVTAEDTATYFCARGGWDPFDYWGQGTTLTVSS VL: DIQMTQSPAALSASVGETVTITCRASDNIYSYLAWYQQKQGKCPQLLVKNAKTLAEGVPSRFSGSGSGTQFSLRINSLQPDDFGTYYCQHYYGTPLTFGAGTKLELK | – |
| 21.3 pM | 6.42e-06 s⁻¹ | 301000 M⁻¹ s⁻¹ | 300 pM | 60.6% | 2000 pM | 125 fold | no binding | 1500 pM | 90.2 fold | – | – | – | – | – | – | mab036xhIgG1TM (clone 66H6C12), mouse-human chimeric anti-CD73 antibody (antibody, V domains shown, also called mAb036 chimeric antibody) VH: QVQLQQSGAEVVKPGASVKISCKASGYVFSSYWINWVKQRPGKGLEWIGKIFPGNGDTDYNGNFKGKATLTADKSSSTAYMQLSSLTSEDSAVYFCAGFADWGQGTLVTVSA VL: DIQMTQSPSSLSASLGERVSLTCRASQDIGERLIWLQQEPDGTFKRLIYATSSLDSGVPKRFSGSSSGSDYSLTISRLESEDFVDYYCLQYASSPYTFGGGTKLEIK | – |

From patent US20220098319A1 (SHANGHAI PHARMAEXPLORER, published 2022)
